Sequences and labels used below:
B1: HBLB (antibody, human IgG4 S228P, kappa, V domains shown)
VH: EVQLVQSGAEVKKPGESLRISCKASGYSFTSYWVHWVRQMPGKGLEWMGNIDPSDSDTHYNQKFKDHVTLSVDKSISTAYLQLSSLKASDTAMYYCVRGGTGTMAWFAYWGQGTLVTVSS
VL: DVVMTQSPLSLPVTLGQPASISCRSSQSLVHSYGNTYLYWFQQRPGQSPRLLIYRVSNRFSGVPDRFSGSGSGTDFTLKISRVEAEDVGVYYCFQGTHVPYTFGGGTKVEIKR
B2: HALB (antibody, human IgG4 S228P, kappa, V domains shown)
VH: B1 VH with S28T, M48I
VL: B1 VL
B3: HBLA (antibody, human IgG4 S228P, kappa, V domains shown)
VH: B1 VH
VL: B1 VL with F41Y, Y92F
B4: HEFLB (antibody, human IgG4 S228P, kappa, V domains shown)
VH: B1 VH with N61S, Q62P, K63S, K65Q, D66G, M104L, W106Y
VL: B1 VL
B5: HALA (antibody, human IgG4 S228P, kappa, V domains shown)
VH: B1 VH with S28T, M48I
VL: B1 VL with F41Y, Y92F
B6: HFLB (antibody, human IgG4 S228P, kappa, V domains shown)
VH: B1 VH with N61S, Q62P, K63S, K65Q, D66G, W106Y
VL: B1 VL
B7: HFLA (antibody, human IgG4 S228P, kappa, V domains shown)
VH: B1 VH with N61S, Q62P, K63S, K65Q, D66G, W106Y
VL: B1 VL with F41Y, Y92F
B8: HEFLA (antibody, human IgG4 S228P, kappa, V domains shown)
VH: B1 VH with N61S, Q62P, K63S, K65Q, D66G, M104L, W106Y
VL: B1 VL with F41Y, Y92F
B9: HELA (antibody, human IgG4 S228P, kappa, V domains shown)
VH: B1 VH with N61S, Q62P, K63S, K65Q, D66G, M104L
VL: B1 VL with F41Y, Y92F
B10: HCLA (antibody, human IgG4 S228P, kappa, V domains shown)
VH: B1 VH with N61S, Q62P, K63S, K65Q, D66G
VL: B1 VL with F41Y, Y92F
B11: HCLB (antibody, human IgG4 S228P, kappa, V domains shown)
VH: B1 VH with N61S, Q62P, K63S, K65Q, D66G
VL: B1 VL
B12: HELB (antibody, human IgG4 S228P, kappa, V domains shown)
VH: B1 VH with N61S, Q62P, K63S, K65Q, D66G, M104L
VL: B1 VL
B13: Kwar23 (antibody, from another filing, V domains shown)
VH: EVQLQQSGAELVKPGASVKLSCTASGFNIKDYYIHWVQQRTEQGLEWIGRIDPEDGETKYAPKFQDKATITADTSSNTAYLHLSSLTSEDTAVYYCARWGAYWGQGTLVTVSS
VL: QIVLTQSPAIMSASPGEKVTLTCSASSSVSSSYLYWYQQKPGSSPKLWIYSTSNLASGVPARFSGSGSGTSYSLTISSMEAEDAASYFCHQWSSYPRTFGAGTKLELK

Positions count from the first letter of the chain named.

In general, EC50 refers to the concentration that produces a half-maximal response.

In one experiment the target is recombinant hSIRPa (Sino Biologicals, reference 11612-H08H) (human) (UniProt P78324). Description: ELISA, hSIRPa (Sino 11612-H08H) coated at 0.5 ug/ml, anti-human IgG detection; third experiment.
Sequence of recombinant hSIRPa (Sino Biologicals, reference 11612-H08H) (human) (P78324 31-370): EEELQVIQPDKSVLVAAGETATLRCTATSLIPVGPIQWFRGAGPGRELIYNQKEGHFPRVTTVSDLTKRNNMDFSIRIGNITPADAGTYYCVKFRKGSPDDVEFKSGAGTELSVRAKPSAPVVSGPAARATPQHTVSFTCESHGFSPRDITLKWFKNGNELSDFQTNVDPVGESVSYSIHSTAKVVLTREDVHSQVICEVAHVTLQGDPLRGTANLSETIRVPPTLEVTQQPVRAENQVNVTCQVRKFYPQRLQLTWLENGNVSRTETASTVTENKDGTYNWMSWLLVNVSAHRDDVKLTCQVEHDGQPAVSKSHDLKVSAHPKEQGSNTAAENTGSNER
For the molecule B1, the EC50 worked out at 2.95 ng/mL. On to B2, for which the EC50 is 2.53 ng/mL. For the molecule B3, the EC50 was 2.68 ng/mL.

Another experiment shares this target. Description: ELISA, hSIRPa (Sino 11612-H08H) coated at 0.5 ug/ml, anti-human IgG detection; first experiment. Background: In an ELISA, binding on a coated surface is turned into a signal by an enzyme label.
B4: the EC50 was 4.4 ng/mL.

For the molecule B5, the EC50 came to 3.9 ng/mL. Same read-out and setting: to B6 belongs 4 ng/mL; to B7, 5.1 ng/mL. As for B8, the EC50 was 7.1 ng/mL.

For a further experiment the target is unchanged. The experiment in a line: ELISA, hSIRPa (Sino 11612-H08H) coated at 0.5 ug/ml, anti-human IgG detection; second experiment.
Turning to B9, the EC50 stood at 4.61 ng/mL. For the molecule B10, the EC50 came to 5.6 ng/mL.

As to B11, the EC50 turned out to be 5.59 ng/mL.

As to B12, the concentration giving a half-maximal response (EC50) was 4.13 ng/mL.

The target is the same in a further experiment. Description: ELISA, hSIRPa (Sino 11612-H08H) coated at 0.5 ug/ml, anti-human IgG detection.
In the case of B13, the EC50 was 3.3 ng/mL.

The values are drawn from patent publication EP3443010B1.
